# What was measured:
# [1] = molecular target: N-terminally 6×His-tagged FilP expressed in E. coli (Streptomyces coelicolor); assay: turbidity (light scattering at 350 nm); His-N-FilP at 20-200 μg/ml dialysed against Tris assembly buffer; 96-well plate
# [2] = molecular target: N-terminally 6×His-tagged FilP expressed in E. coli (Streptomyces coelicolor); assay: ultracentrifugation sedimentation assay; His-N-FilP 200 μg/ml dialysed against Tris pH 8.8; 135,000-300,000g, 15-30 min, 25°C
# [3] = molecular target: N-terminally 6×His-tagged FilP expressed in E. coli (Streptomyces coelicolor); assay: ultracentrifugation sedimentation assay; His-N-FilP 200 μg/ml dialysed against 50 mM Tris-HCl pH 6.8 with 1 M NaCl; 135,000-300,000g, 15-30 min, 25°C
# [4] = molecular target: N-terminally 6×His-tagged FilP expressed in E. coli (Streptomyces coelicolor); assay: as above; remark: listed apart in the source
# [5] = molecular target: N-terminally 6×His-tagged FilP expressed in E. coli (Streptomyces coelicolor); assay: ultracentrifugation sedimentation assay; His-N-FilP 200 μg/ml dialysed against 50 mM Tris-HCl pH 6.8 with 0.2 M KCl; 135,000-300,000g, 15-30 min, 25°C
# [6] = molecular target: N-terminally 6×His-tagged FilP expressed in E. coli (Streptomyces coelicolor); assay: ultracentrifugation sedimentation assay; His-N-FilP 200 μg/ml dialysed against 50 mM Tris-HCl pH 6.8 with 5 mM MgCl2; 135,000-300,000g, 15-30 min, 25°C
# [7] = molecular target: N-terminally 6×His-tagged FilP expressed in E. coli (Streptomyces coelicolor); assay: ultracentrifugation sedimentation assay; His-N-FilP 200 μg/ml dialysed against 50 mM Tris-HCl pH 6.8 with 0.2 M KCl and 1 M NaCl; 135,000-300,000g, 15-30 min, 25°C
substance,measurement,setting,value
N-terminally 6×His-tagged FilP expressed in E. coli (natural protein),critical concentration for filamentation,[1],33 µg/mL
same,percent of total FilP soluble (in the supernatant after ultracentrifugation),[2],32%
same,percent of added protein recovered in the supernatant after ultracentrifugation,[3],35%
same,percent of added protein recovered in the supernatant after ultracentrifugation,[4],40%
same,percent of added protein recovered in the supernatant after ultracentrifugation,[5],25%
same,percent of added protein recovered in the supernatant after ultracentrifugation,[6],11%
same,percent of added protein recovered in the supernatant after ultracentrifugation,[7],63%
